Assay results published in patent US20140018290A1 (Novo Nordisk, published 2014).

T1: human Leptin receptor (human, UniProt P48357 22-1165)
T1 sequence (looked up): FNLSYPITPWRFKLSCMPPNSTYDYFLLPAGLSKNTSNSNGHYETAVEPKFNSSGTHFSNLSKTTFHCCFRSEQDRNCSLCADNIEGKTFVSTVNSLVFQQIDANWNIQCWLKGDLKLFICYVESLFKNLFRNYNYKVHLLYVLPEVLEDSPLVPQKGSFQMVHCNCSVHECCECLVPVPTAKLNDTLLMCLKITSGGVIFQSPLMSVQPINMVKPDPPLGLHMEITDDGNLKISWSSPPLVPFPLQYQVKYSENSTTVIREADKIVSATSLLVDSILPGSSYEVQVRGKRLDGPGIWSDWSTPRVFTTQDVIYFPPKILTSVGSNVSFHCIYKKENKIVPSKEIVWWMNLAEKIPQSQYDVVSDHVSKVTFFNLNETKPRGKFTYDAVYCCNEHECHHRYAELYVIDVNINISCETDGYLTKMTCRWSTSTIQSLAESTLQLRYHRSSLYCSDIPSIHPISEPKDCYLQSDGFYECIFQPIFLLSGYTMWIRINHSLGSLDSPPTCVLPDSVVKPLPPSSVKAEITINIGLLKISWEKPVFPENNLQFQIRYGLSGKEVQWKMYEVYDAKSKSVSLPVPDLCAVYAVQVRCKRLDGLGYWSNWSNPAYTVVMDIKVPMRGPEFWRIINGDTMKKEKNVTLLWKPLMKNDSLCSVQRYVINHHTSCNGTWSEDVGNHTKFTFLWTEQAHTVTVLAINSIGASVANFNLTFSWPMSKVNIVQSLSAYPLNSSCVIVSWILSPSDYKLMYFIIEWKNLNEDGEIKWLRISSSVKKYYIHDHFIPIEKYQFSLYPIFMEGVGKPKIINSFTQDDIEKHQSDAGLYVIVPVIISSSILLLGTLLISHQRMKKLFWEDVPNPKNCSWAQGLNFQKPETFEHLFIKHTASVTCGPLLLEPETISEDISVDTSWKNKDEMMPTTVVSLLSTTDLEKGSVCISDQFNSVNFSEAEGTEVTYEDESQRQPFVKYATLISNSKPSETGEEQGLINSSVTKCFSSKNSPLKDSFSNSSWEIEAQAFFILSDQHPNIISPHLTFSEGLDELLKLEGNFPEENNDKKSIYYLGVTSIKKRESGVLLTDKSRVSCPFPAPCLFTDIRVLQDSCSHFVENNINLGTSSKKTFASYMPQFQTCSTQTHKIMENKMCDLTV


Legend:
human Leptin receptor [1] = target: T1, human Leptin receptor; assay: cell-based or functional assay
human Leptin receptor [2] = target: T1, human Leptin receptor; assay: SPA, displacement of human [125I]-Leptin from human Leptin receptor membranes, 0% HSA added; mean, n=3
Experimental: (§1) Human Leptin receptor SPA binding assay were performed in white 96-well plates in a total volume of 200 μl per well. Wheat germ agglutinin coated beads containing scintillation liquid were reconstituted in binding buffer (50 mM Hepes, 1 mM CaCl₂, 5 mM MgCl₂, 0.02% Tween 20, 0.25% Ovalbumin pH 7.4) and mixed with membrane preparation to give final concentration of 1 mg beads and 10 μg total protein per well. 50.000 cpm per well of radio ligand human [¹²⁵I]-Leptin was added corresponding to a concentration of approximately […]. Human serum albumin was added to a final concentration of 2% when binding in presence of albumin was investigated. Freeze dried Leptin analogues were dissolved in PBS to 100 μM and serial diluted in binding buffer to give a final assay concentration ranging from 100 nM to […]. The plate was sealed and incubated at +25° C. for 2 hours in a plate shaker set at 400 rpm and thereafter centrifuged at 1500 rpm for 10 minutes prior to reading of luminescence on a microplate scintillation and luminescence counter. Displacement of radioligand was measured as reduction in luminescence and IC₅₀ values were calculated by nonlinear regression analysis of sigmoidal dose-response curves.

human Leptin receptor [3] = target: T1, human Leptin receptor; assay: SPA, displacement of human [125I]-Leptin from human Leptin receptor membranes, 2% HSA added; mean, n=3
Experimental: as §1

human Leptin receptor [4] = target: T1, human Leptin receptor; assay: whole cell binding, displacement of [125I]-hLeptin on HEK293 cells expressing human Leptin receptor; mean, n=4
Experimental: HEK293 cells stably expressing the human Leptin receptor were seeded in poly-D-lysine coated 24 well plates at 200.000 cells per well and cultured for two days in alpha-minimum essential medium (MEM), cell culture media containing 10% heat inactivated fetal calf serum (FCS), 1% penicillin-streptomycin (P/S), 1 mg/ml Zeocin and 1 mg/ml G418 antibiotic at +37° C. in a humidified atmosphere with 5% CO₂. Prior to the experiment, cells were rinsed in pure MEM medium, followed by incubation in Leptin analogues at 10,3,1,0.3,0.1,0.03 and 0.01 nM concentrations for 45 minutes in MEM containing 0.005% polysorbate 20 and 0.1% ovalbumin and [¹²⁵I]-hLeptin 100000 cpm. The cells were washed three times in ice cold MEM and were lysed in lysis buffer containing 1.0% nonidet P-40, 0.5% triton X-100 (C₁₄H₂₂O(C₂H₄O)ₙ) and 1M sodium hydroxide. Samples are transferred to plastic

Luciferase assay, Mean EC50 nM, 0% HSA added (human Leptin receptor [1]) [nM]	Luciferase assay, Mean IC50 nM, 0.7% HSA added (human Leptin receptor [1]) [nM]	IC50 (human Leptin receptor [2]) [nM]	IC50 (human Leptin receptor [3]) [nM]	IC50 (human Leptin receptor [4]) [nM]	Binder
0.24	0.42	0.38	5.93	–	Compound C (protracted rat Leptin: rat Leptin alkylated with compound 2 at the N-terminal amino group) (ligand, N-terminal amino group alkylated with compound 2 (protractor group: C18 diacid (17-carboxyheptadecanoyl)-gamma-Glu-OEG-OEG-4-formylbenzylamide, attached by reductive alkylation), also called protracted rLeptin) VPIHKVQDDTKTLIKTIVTRINDISHTQSVSARQRVTGLDFIPGLHPILSLSKMDQTLAVYQQILTSLPSQNVLQIAHDLENLRDLLHLLAFSKSCSLPQTRGLQKPESLDGVLEASLYSTEVVALSRLQGSLQDILQQLDLSPEC
0.41	0.52	0.49	0.88	1.01	Rat Leptin (ligand, also called rLeptin; wt rat Leptin) VPIHKVQDDTKTLIKTIVTRINDISHTQSVSARQRVTGLDFIPGLHPILSLSKMDQTLAVYQQILTSLPSQNVLQIAHDLENLRDLLHLLAFSKSCSLPQTRGLQKPESLDGVLEASLYSTEVVALSRLQGSLQDILQQLDLSPEC
1.57	1.92	1.9	37.1	1.76	Compound A (protracted rat Leptin: rat Leptin alkylated with compound 1 at the N-terminal amino group) (ligand, N-terminal amino group alkylated with compound 1 (protractor group with 16-(tetrazol-5-yl)hexadecanoylsulfamoyl-butyryl, two Glu, OEG, Gly and an aldehyde-derived anchor), Mw 17190 g/mol) VPIHKVQDDTKTLIKTIVTRINDISHTQSVSARQRVTGLDFIPGLHPILSLSKMDQTLAVYQQILTSLPSQNVLQIAHDLENLRDLLHLLAFSKSCSLPQTRGLQKPESLDGVLEASLYSTEVVALSRLQGSLQDILQQLDLSPEC
